Source: patent US20030224972A1

Biological target: MC1-R
Test: cell-based or functional assay

inhibits activation of the MC1-R: 220 pM
Substance: Recombinant mouse agouti signal protein (from UniProt Q03288 23-131) (ligand)
